Experimental data published in PMC3752401.

Experiments:
[1] = molecular target: H3Kc9me3 core mononucleosome; test: fluorescence polarisation
H3K9 core mononucleosome = test: native gel or EMSA
[2] = molecular target: H3Kc9me3 core mononucleosome; test: native gel or EMSA

Chain of Suv39/Clr4 (full length wild-type) (O60016 whole entry): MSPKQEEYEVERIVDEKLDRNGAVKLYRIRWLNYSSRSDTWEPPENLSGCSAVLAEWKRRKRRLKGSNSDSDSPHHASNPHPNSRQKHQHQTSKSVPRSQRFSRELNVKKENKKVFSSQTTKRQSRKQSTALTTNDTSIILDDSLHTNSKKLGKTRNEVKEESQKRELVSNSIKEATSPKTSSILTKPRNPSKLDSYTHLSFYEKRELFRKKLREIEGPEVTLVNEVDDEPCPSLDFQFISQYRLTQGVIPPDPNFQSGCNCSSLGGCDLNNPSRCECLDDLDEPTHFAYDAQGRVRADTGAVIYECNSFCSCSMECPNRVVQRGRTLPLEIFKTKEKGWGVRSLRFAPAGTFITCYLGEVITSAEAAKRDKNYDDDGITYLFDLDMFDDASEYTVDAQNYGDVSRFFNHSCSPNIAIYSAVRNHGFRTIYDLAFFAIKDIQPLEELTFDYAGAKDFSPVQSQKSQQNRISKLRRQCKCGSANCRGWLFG

Suv39/Clr4 (full length wild-type) (from UniProt O60016 1-490) (enzyme)
fold sensitivity of the FP increase to the H3Kc9me3 mark over the H3K9 control [1]: > 25 fold | K1/2 (H3K9 core mononucleosome): 1.8 µM | K1/2 [2]: 1.5 µM
